The text below walks through data of article PMC4108065, “Inflammation and pancreatic cancer: molecular and functional interactions between S100A8, S100A9, NT-S100A8 and TGFβ1” (Cell Communication and Signaling : CCS, 2014).

Where “and” joins values, the source holds several entries; their conditions need not be identical. Equal entries are not always repeated.

Series [1] is described as follows: Degradation of the 2280 m/z peptide in Capan1 conditioned media (MALDI-TOF/MS). Particulars: 37°C. It is filed as in vitro ADME, human. As to the method:
(§1) To obtain BxPC3 and Capan1 conditioned media (CM), 400,000 cells were cultured (75 cm^2 flasks) for 96 hours in RPMI supplemented with 1% FCS and 0.1% gentamycin. In parallel, Ukrain (Nowicky Pharma, Wien, Austria) treated Capan1 CM were obtained as above, the difference being that Ukrain was added 24 hours after cells had been seeded at the final concentration of 5 μM. Complete culture media maintained in a cell culture incubator for 96 hours (negative control), Capan1 and Ukrain-treated Capan1 CM were centrifuged at 1,500 rpm for 10 min, and then immediately mixed with 3 μM S100A8 or 2.5 μM S100A9 (ProSpec-Tany TechnoGene, Ness Ziona, Israel) and maintained at 37°C overnight before MALDI-TOF/MS analyses. Complete culture media, BxPC3 and Capan1 CM, treated as described above, were incubated at 37°C with 200 μM of the S100A8 1–19 N-terminal aminoacid sequence (NT-S100A8) (Primm, Milano, Italy) for 1, 2, 3, 4, 5, 6, 12 and 24 hours before MALDI-TOF/MS analyses. At least three independent sets of experiments were performed for both assays.
(§2) Cell culture media were first desalted and purified by ZipTip C18 pipette tips, following the procedure described in the ZipTip user’s guide. […]

Series [2] in a line: Degradation of the 2280 m/z peptide in BxPC3 conditioned media (MALDI-TOF/MS). It is filed as in vitro ADME, human. The following applies: 37°C. As to the method:
as §1, §2

The nature of series [3]: Stability of the 2280 m/z peptide in non-conditioned media (MALDI-TOF/MS). In kind it is in vitro ADME. The following applies: 200 μM, 37°C, time 0, MALDI-TOF/MS. As to the method: as §1, §2
Series [4] deals with the molecule itself. Nature of the series: MALDI-TOF/MS of mixtures (linear positive ion mode); proteins and CaCl2 mixed at equimolar concentration (11.3 μM) in aqueous solution, incubated overnight at 37°C, diluted 1/10 in 0.1% TFA, sinapinic acid matrix.
The target of the next series is T1, S100A9, P06702.
T1 chain: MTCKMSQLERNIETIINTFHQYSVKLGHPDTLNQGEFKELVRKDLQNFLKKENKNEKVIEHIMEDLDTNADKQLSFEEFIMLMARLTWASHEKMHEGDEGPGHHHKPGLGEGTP
The series is described as above. Particulars: remark: other sources report otherwise.

One may read the stoichiometry N as the number of molecules, sites or subunits per partner or assembly.

For “2280 m/z peptide: synthesized 1–19 N-terminal aminoacid sequence of S100A8, released by Capan1 conditioned medium (MLTELEKALNSIIDVYHKY; UniProt P05109 1-19, looked up, fragment)”, the “time of degradation of the parental 2280 m/z peptide” value in series [1] (200 μM peptide in Capan1 conditioned media (96 h, RPMI 1% FCS), MALDI-TOF/MS, TIC normalized) is 2 h; in series [2] (200 μM peptide in BxPC3 conditioned media (96 h, RPMI 1% FCS), MALDI-TOF/MS, TIC normalized), 12 h. For the same molecule, the “parental 19 aminoacid peptide after 24 hours' incubation” value in series [1] (200 μM, Capan1 conditioned media, 24 hours, MALDI-TOF/MS 650–3000 m/z) is recorded as “disappeared”; in series [2] (200 μM, BxPC3 conditioned media, 24 hours, MALDI-TOF/MS 650–3000 m/z) it was “disappeared”. Moreover, the “abundance of the parental peptide at 2280 m/z (TIC normalized)” value in series [3] was 0.99.

B1: S100A8 (natural protein, UniProt P05109 1-93, looked up)
chain: MLTELEKALNSIIDVYHKYSLIKGNFHAVYRDDLKKLLETECPQYIRKKGADVWFKELDINTDGAVNFQEFLILVIKMGVAAHKKSHEESHKE
notes: Commercial recombinant protein; source: bought: ProSpec-Tany TechnoGene
Consider B1, for which the “stoichiometry N” value in series [4] came out at 2.

B2: S100A9, P06702 1-114 (natural protein)
chain: MTCKMSQLERNIETIINTFHQYSVKLGHPDTLNQGEFKELVRKDLQNFLKKENKNEKVIEHIMEDLDTNADKQLSFEEFIMLMARLTWASHEKMHEGDEGPGHHHKPGLGEGTP
As to B2, in the series with S100A9, P06702, the stoichiometry N was 2 and 3.
